Results reported in article PMC5887438 (Nucleic Acids Research, 2018).

Target: C. crescentus σ70 domain 2 (σ70_2, residues 128-487) (Caulobacter crescentus, UniProt P52324 127-486)
Assay: crystal structure

Sequence of C. crescentus σ70 domain 2 (σ70_2, residues 128-487) (P52324 127-486): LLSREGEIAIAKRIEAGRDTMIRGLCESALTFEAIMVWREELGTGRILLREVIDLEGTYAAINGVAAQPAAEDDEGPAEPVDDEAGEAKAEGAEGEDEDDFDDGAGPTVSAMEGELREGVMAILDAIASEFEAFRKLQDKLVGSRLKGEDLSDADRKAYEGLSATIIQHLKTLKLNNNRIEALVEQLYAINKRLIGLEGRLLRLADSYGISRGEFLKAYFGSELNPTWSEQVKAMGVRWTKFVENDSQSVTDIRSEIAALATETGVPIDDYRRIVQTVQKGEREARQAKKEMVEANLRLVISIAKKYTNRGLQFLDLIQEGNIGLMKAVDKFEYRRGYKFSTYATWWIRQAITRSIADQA

stoichiometry N: 1
B1: C. crescentus GcrA-SID (residues 88-173) (domain or fragment, Caulobacter crescentus, UniProt A0A0H3C9J4 88-173, looked up)
chain: VPVAAAPAPLPAFRHEEPGSATVLTLGAHMCKWPIGDPSSEGFTFCGRRSSEGPYCVEHARVAYQPQQTKKKSGGAELARSLRRYI
